Assay [1] has as its target 3XFLAG-PRL-3 in HEK293T cells (Homo sapiens, UniProt O75365). The experiment in a line: pull-down.
In assay [2] the target is T1, Phosphatase of Regenerating Liver-3 (PRL-3), recombinant (Homo sapiens, UniProt O75365). Kind of assay: ELISA.
The target of assay [3] is GFP-PRL-3 in HCT116 cells (Homo sapiens, UniProt O75365). Kind of assay: immunostaining of cells or tissue.
Assay [4] deals with GFP-PRL-2 in HCT116 cells (Homo sapiens, UniProt Q12974). Kind of assay: immunostaining of cells or tissue.
Chain of GFP-PRL-2 in HCT116 cells (Q12974 whole entry): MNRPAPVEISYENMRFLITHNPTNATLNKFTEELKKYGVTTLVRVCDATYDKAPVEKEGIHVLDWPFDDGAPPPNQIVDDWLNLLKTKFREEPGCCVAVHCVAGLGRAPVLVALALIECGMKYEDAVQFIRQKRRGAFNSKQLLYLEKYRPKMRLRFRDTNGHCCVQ
In assay [5] the target is GFP-PRL-1 in HCT116 cells (Homo sapiens, UniProt Q93096). The experiment in a line: immunostaining of cells or tissue.
Chain of GFP-PRL-1 in HCT116 cells (Q93096 whole entry): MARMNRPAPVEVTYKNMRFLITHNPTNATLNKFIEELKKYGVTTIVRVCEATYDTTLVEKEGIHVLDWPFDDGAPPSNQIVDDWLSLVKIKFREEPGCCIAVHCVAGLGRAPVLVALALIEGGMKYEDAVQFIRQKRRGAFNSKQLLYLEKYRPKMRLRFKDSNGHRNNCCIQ
The target of assay [6] is 3XFLAG-tagged PRL-3, recombinant (human, UniProt O75365). The experiment in a line: co-IP.
Chain of 3XFLAG-tagged PRL-3, recombinant (O75365 whole entry): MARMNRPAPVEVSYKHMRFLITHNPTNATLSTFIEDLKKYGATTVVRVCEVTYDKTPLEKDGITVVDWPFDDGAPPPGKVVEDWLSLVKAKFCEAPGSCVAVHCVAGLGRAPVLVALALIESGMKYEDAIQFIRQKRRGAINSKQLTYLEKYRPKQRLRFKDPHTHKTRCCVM
In assay [7] the target is T1, Phosphatase of Regenerating Liver-3 …. The experiment in a line: HDX-MS.
Assay [8] concerns the target 3XFLAG-PRL-3 in HCT116 cells (Homo sapiens, UniProt O75365). The experiment in a line: immunostaining of cells or tissue.
The target of assay [9] is untagged (wild-type) PRL-3 in HCT116 cells (Homo sapiens, UniProt O75365). The experiment in a line: immunostaining of cells or tissue.
Chain of untagged (wild-type) PRL-3 in HCT116 cells (O75365 whole entry): as above
For assay [10], the target named is T1, Phosphatase of Regenerating Liver-3 …. The experiment in a line: BLI.

Chain of 3XFLAG-PRL-3 in HEK293T cells (O75365 whole entry): as above
T1 sequence (O75365 whole entry): as above
Chain of GFP-PRL-3 in HCT116 cells (O75365 whole entry): as above
Chain of 3XFLAG-PRL-3 in HCT116 cells (O75365 whole entry): as above

B1: anti-PRL-3 nanobody 4 (VHH)
VHH: QVQLQESGGGLVQTGGSLRLSCAASQSTYNFDVMGWYRLAPGKQREFLTSITNGGNIYYADSVKGRFTIARDDSKTTMYLEMNSLKPEDTAVYTCYGQTHKPRVTTSWGQGTQVTVSS
With B1, the binding result in assay [1], in assay [2] and in assay [3] was “binds” each time.

B2: anti-PRL-3 nanobody 16 (VHH)
VHH: QVQLQESGGGLVQTGGSLRLSCAASQSTFNFDVMGWYRLAPGKQREFLTSITNGGNIYYADSVKGRFTTARDDSKTTMYLEMNSLKPEDTAVYTCYGQTHKPRVTTSWGQGTQVTVSS
As for B2, the binding result in [1], in assay [2] and in [3] was “binds” throughout.

B3: anti-PRL-3 nanobody 10 (VHH)
VHH: QVQLQESGGGLVQTGGSLRLSCAASQSTFNFNVMGWYRLAPGKQREFLPSLTNGGNIYYADSVKGRFTIARDDSKTTTYLEMNSLKPEDTAVYTCYGQTHKPRVTTSWGQGTQVTVSS
On to B3, for which the binding result is recorded as “binds” in assay [1]; “binds” in assay [2]; “no binding (tested: 1:100 of 1 mg/mL)” in assay [4]; “binds” in [3]; “no binding (tested: 1:100 of 1 mg/mL)” in assay [5].

B4: anti-PRL-3 nanobody 91 (VHH)
VHH: QVQLQESGGGLVQTGGSLRLSCAASQSTFNFDVMGWYRLAPGKQREFLTSITNGGNIYYADSVKGRFTIARDDSKTTMYLEMNSLKPEDTAVYTCYGQTHKPRVTTSWGQGTQVTVSS
Regarding B4, the binding result in assay [6] is recorded as “binds”; in assay [7], “binds”; in [1] it was “binds”; in assay [4], “no binding (tested: 1:100 of 1 mg/mL)”; in [3] it was “binds”; in assay [8], “binds”. Also, the binding result in assay [9] was “binds”; in [5] it was “no binding (tested: 1:100 of 1 mg/mL)”.

B5: anti-PRL-3 nanobody 19 (VHH)
VHH: QVQLQESGGGLVQAGGSLGLSCAASRSIFNFKVMGWYRQAPGKQRELVASITNSDNTYYADSVKGRFTISREDAKTTMYLEMNSLKPEDTAVYRCYGQNWGLRATTYWGQGTQVTVSS
Regarding B5, the Kd in [10] came out at 98.4 nM.

B6: anti-PRL-3 nanobody 84 (VHH)
VHH: QVQLQESGGGLVQAGGSLGLSCAASRSIFNFKVMGWYRQAPGKQRELVASITNSDNTYYADSVKGRFTISREDAKTTMYLEMNSLKPEDTTVYRCYGQNWGLRATTYWGQGTQVTVSS
Regarding B6, the binding result in [1], in assay [2] and in assay [3] was “binds” in each case.

B7: anti-PRL-3 nanobody 26 (VHH)
VHH: QVQLQESGGGLVQPGGSLKLSCVVTGLHYYTEGWFRQAPGKEREGVSCISSSDGRTDYIDSVKGRFTISEDNDNKTVYLQMNTLKPDDTGVYYCVAERGPRGSTWWETYDYWGQGTHVTVSS
Regarding B7, in [10], the dissociation constant (Kd) amounted to 28.9 nM. The binding result in assay [4] and in [5] was “no binding (tested: 1:100 of 1 mg/mL)” each time.

These data come from doi:10.1101/2020.10.02.311787 (bioRxiv, 2020).
